Measurements: FireProtDB (doi:10.1021/bi9910169)

B1: Lysozyme C, P61626 (parent)
chain: MKALIVLGLVLLSVTVQGKVFERCELARTLKRLGMDGYRGISLANWMCLAKWESGYNTRATNYNAGDRSTDYGIFQINSRYWCNDGKTPGAVNACHLSCSALLQDNIADAVACAKRVVRDPQGIRAWVAWRNRCQNRDVRQYVQGCGV

Variants of: B1
Details: Homo sapiens; pH 2.74; Thermal; DSC; glycine-HCl 0.05 M; reversible: yes; structure 1LZ1; whole UniProt chain shown

Question: For MKALIVLGLVLLSVTVQGKVFERCELARALKRLGMDGYRGISLANWMCLAKWESGYNTRATNYNAGDRSTDYGIFQINSRYWCNDGKTPGAVNACHLSCSALLQDNIADAVACAKRVVRDPQGIRAWVAWRNRCQNRDVRQYVQGCGV [T29A], which Tm is on record?
Answer: 66.8 °C

Question: What about the “unfolding enthalpy (calorimetric)” value of the same variant?
Answer: 112 kcal/mol

Question: What about the “unfolding enthalpy (van 't Hoff)” value of the same variant?
Answer: 115 kcal/mol

Question: Which Tm does the source give for MKALIVLGLVLLSVTVQGKVFERCELARTLKRLGMDGYRGISLANWMCLAKWESGYNTRAANYNAGDRSTDYGIFQINSRYWCNDGKTPGAVNACHLSCSALLQDNIADAVACAKRVVRDPQGIRAWVAWRNRCQNRDVRQYVQGCGV [T61A] here?
Answer: 64.5 °C

Question: What about the “unfolding enthalpy (calorimetric)” value of the same variant?
Answer: 108 kcal/mol

Question: What about the “unfolding enthalpy (van 't Hoff)” value of the same variant?
Answer: 109 kcal/mol

Same assay, conditions: Homo sapiens; pH 2.82; Thermal; DSC; glycine-HCl 0.05 M; reversible: yes; structure 1LZ1; whole UniProt chain shown

Question: With MKALIVLGLVLLSVTVQGKVFERCELARALKRLGMDGYRGISLANWMCLAKWESGYNTRATNYNAGDRSTDYGIFQINSRYWCNDGKTPGAVNACHLSCSALLQDNIADAVACAKRVVRDPQGIRAWVAWRNRCQNRDVRQYVQGCGV [T29A] as the variant, how does the Tm read?
Answer: 68.5 °C

Question: What about the “unfolding enthalpy (calorimetric)” value of the same variant?
Answer: 115 kcal/mol

Question: And the “unfolding enthalpy (van 't Hoff)” value?
Answer: 116 kcal/mol

Same assay, conditions: Homo sapiens; pH 3.02; Thermal; DSC; glycine-HCl 0.05 M; reversible: yes; structure 1LZ1; whole UniProt chain shown

Question: With MKALIVLGLVLLSVTVQGKVFERCELARALKRLGMDGYRGISLANWMCLAKWESGYNTRATNYNAGDRSTDYGIFQINSRYWCNDGKTPGAVNACHLSCSALLQDNIADAVACAKRVVRDPQGIRAWVAWRNRCQNRDVRQYVQGCGV [T29A] as the variant, how does the Tm read?
Answer: 71.4 °C

Question: What about the “unfolding enthalpy (calorimetric)” value of the same variant?
Answer: 116 kcal/mol

Question: And the “unfolding enthalpy (van 't Hoff)” value?
Answer: 119 kcal/mol

Question: For MKALIVLGLVLLSVTVQGKVFERCELARTLKRLGMDGYRGISLANWMCLAKWESGYNTRAVNYNAGDRSTDYGIFQINSRYWCNDGKTPGAVNACHLSCSALLQDNIADAVACAKRVVRDPQGIRAWVAWRNRCQNRDVRQYVQGCGV [T61V], which Tm is on record?
Answer: 73 °C

Question: What about the “unfolding enthalpy (calorimetric)” value of the same variant?
Answer: 108 kcal/mol

Question: What about the “unfolding enthalpy (van 't Hoff)” value of the same variant?
Answer: 118 kcal/mol

Same assay, conditions: Homo sapiens; pH 3.22; Thermal; DSC; glycine-HCl 0.05 M; reversible: yes; structure 1LZ1; whole UniProt chain shown

Question: For MKALIVLGLVLLSVTVQGKVFERCELARALKRLGMDGYRGISLANWMCLAKWESGYNTRATNYNAGDRSTDYGIFQINSRYWCNDGKTPGAVNACHLSCSALLQDNIADAVACAKRVVRDPQGIRAWVAWRNRCQNRDVRQYVQGCGV [T29A], which Tm is on record?
Answer: 73.4 °C

Question: What about the “unfolding enthalpy (calorimetric)” value of the same variant?
Answer: 119 kcal/mol

Question: What about the “unfolding enthalpy (van 't Hoff)” value of the same variant?
Answer: 120 kcal/mol

Same assay, conditions: Homo sapiens; pH 2.51; Thermal; DSC; glycine-HCl 0.05 M; reversible: yes; structure 1LZ1; whole UniProt chain shown

Question: What does the source list for MKALIVLGLVLLSVTVQGKVFERCELARVLKRLGMDGYRGISLANWMCLAKWESGYNTRATNYNAGDRSTDYGIFQINSRYWCNDGKTPGAVNACHLSCSALLQDNIADAVACAKRVVRDPQGIRAWVAWRNRCQNRDVRQYVQGCGV [T29V]?
Answer: Tm: 62.9 °C; unfolding enthalpy (calorimetric): 104 kcal/mol; unfolding enthalpy (van 't Hoff): 107 kcal/mol

Question: What does the source list for MKALIVLGLVLLSVTVQGKVFERCELARTLKRLGMDGYRGISLANWMCLAKWESGYNTRAVNYNAGDRSTDYGIFQINSRYWCNDGKTPGAVNACHLSCSALLQDNIADAVACAKRVVRDPQGIRAWVAWRNRCQNRDVRQYVQGCGV [T61V]?
Answer: Tm: 65 °C; unfolding enthalpy (calorimetric): 99.9 kcal/mol; unfolding enthalpy (van 't Hoff): 112 kcal/mol

Same assay, conditions: Homo sapiens; pH 2.71; Thermal; DSC; glycine-HCl 0.05 M; reversible: yes; structure 1LZ1; whole UniProt chain shown

Question: What does the source list for MKALIVLGLVLLSVTVQGKVFERCELARVLKRLGMDGYRGISLANWMCLAKWESGYNTRATNYNAGDRSTDYGIFQINSRYWCNDGKTPGAVNACHLSCSALLQDNIADAVACAKRVVRDPQGIRAWVAWRNRCQNRDVRQYVQGCGV [T29V]?
Answer: Tm: 66.2 °C; unfolding enthalpy (calorimetric): 110 kcal/mol; unfolding enthalpy (van 't Hoff): 112 kcal/mol

Question: What does the source list for MKALIVLGLVLLSVTVQGKVFERCELARTLKRLGMDGYRGISLANWMCLAKWESGYNTRAVNYNAGDRSTDYGIFQINSRYWCNDGKTPGAVNACHLSCSALLQDNIADAVACAKRVVRDPQGIRAWVAWRNRCQNRDVRQYVQGCGV [T61V]?
Answer: Tm: 68.4 °C; unfolding enthalpy (calorimetric): 105 kcal/mol; unfolding enthalpy (van 't Hoff): 114 kcal/mol

Same assay, conditions: Homo sapiens; pH 2.81; Thermal; DSC; glycine-HCl 0.05 M; reversible: yes; structure 1LZ1; whole UniProt chain shown

Question: Which Tm does the source give for MKALIVLGLVLLSVTVQGKVFERCELARVLKRLGMDGYRGISLANWMCLAKWESGYNTRATNYNAGDRSTDYGIFQINSRYWCNDGKTPGAVNACHLSCSALLQDNIADAVACAKRVVRDPQGIRAWVAWRNRCQNRDVRQYVQGCGV [T29V] here?
Answer: 68.7 °C

Question: What about the “unfolding enthalpy (calorimetric)” value of the same variant?
Answer: 114 kcal/mol

Question: What about the “unfolding enthalpy (van 't Hoff)” value of the same variant?
Answer: 117 kcal/mol

Same assay, conditions: Homo sapiens; pH 3.19; Thermal; DSC; glycine-HCl 0.05 M; reversible: yes; structure 1LZ1; whole UniProt chain shown

Question: Which Tm does the source give for MKALIVLGLVLLSVTVQGKVFERCELARVLKRLGMDGYRGISLANWMCLAKWESGYNTRATNYNAGDRSTDYGIFQINSRYWCNDGKTPGAVNACHLSCSALLQDNIADAVACAKRVVRDPQGIRAWVAWRNRCQNRDVRQYVQGCGV [T29V] here?
Answer: 73 °C

Question: And the “unfolding enthalpy (calorimetric)” value?
Answer: 117 kcal/mol

Question: And the “unfolding enthalpy (van 't Hoff)” value?
Answer: 121 kcal/mol

Same assay, conditions: Homo sapiens; pH 2.54; Thermal; DSC; glycine-HCl 0.05 M; reversible: yes; structure 1LZ1; whole UniProt chain shown

Question: With MKALIVLGLVLLSVTVQGKVFERCELARTLKRLGMDGYRGISLANWMCLAKWESGYNTRAANYNAGDRSTDYGIFQINSRYWCNDGKTPGAVNACHLSCSALLQDNIADAVACAKRVVRDPQGIRAWVAWRNRCQNRDVRQYVQGCGV [T61A] as the variant, how does the Tm read?
Answer: 61.1 °C

Question: And the “unfolding enthalpy (calorimetric)” value?
Answer: 104 kcal/mol

Question: And the “unfolding enthalpy (van 't Hoff)” value?
Answer: 105 kcal/mol

Same assay, conditions: Homo sapiens; pH 2.9; Thermal; DSC; glycine-HCl 0.05 M; reversible: yes; structure 1LZ1; whole UniProt chain shown

Question: With MKALIVLGLVLLSVTVQGKVFERCELARTLKRLGMDGYRGISLANWMCLAKWESGYNTRAANYNAGDRSTDYGIFQINSRYWCNDGKTPGAVNACHLSCSALLQDNIADAVACAKRVVRDPQGIRAWVAWRNRCQNRDVRQYVQGCGV [T61A] as the variant, how does the Tm read?
Answer: 67.1 °C

Question: What about the “unfolding enthalpy (calorimetric)” value of the same variant?
Answer: 111 kcal/mol

Question: What about the “unfolding enthalpy (van 't Hoff)” value of the same variant?
Answer: 112 kcal/mol

Same assay, conditions: Homo sapiens; pH 3.2; Thermal; DSC; glycine-HCl 0.05 M; reversible: yes; structure 1LZ1; whole UniProt chain shown

Question: Which Tm does the source give for MKALIVLGLVLLSVTVQGKVFERCELARTLKRLGMDGYRGISLANWMCLAKWESGYNTRAVNYNAGDRSTDYGIFQINSRYWCNDGKTPGAVNACHLSCSALLQDNIADAVACAKRVVRDPQGIRAWVAWRNRCQNRDVRQYVQGCGV [T61V] here?
Answer: 75.4 °C

Question: And the “unfolding enthalpy (calorimetric)” value?
Answer: 113 kcal/mol

Question: What about the “unfolding enthalpy (van 't Hoff)” value of the same variant?
Answer: 121 kcal/mol

Same assay, conditions: Homo sapiens; pH 2.5; Thermal; DSC; glycine-HCl 0.05 M; reversible: yes; structure 1LZ1; whole UniProt chain shown

Question: With MKALIVLGLVLLSVTVQGKVFERCELARTLKRLGMDGYRGISLANWMCLAKWESGYNTRATNYNAGDRSTDYGIFQINSRYWCNDGKAPGAVNACHLSCSALLQDNIADAVACAKRVVRDPQGIRAWVAWRNRCQNRDVRQYVQGCGV [T88A] as the variant, how does the Tm read?
Answer: 57.3 °C

Question: What about the “unfolding enthalpy (calorimetric)” value of the same variant?
Answer: 98.5 kcal/mol

Question: And the “unfolding enthalpy (van 't Hoff)” value?
Answer: 99.9 kcal/mol

Same assay, conditions: Homo sapiens; pH 2.7; Thermal; DSC; glycine-HCl 0.05 M; reversible: yes; structure 1LZ1; whole UniProt chain shown

Question: Which Tm does the source give for MKALIVLGLVLLSVTVQGKVFERCELARTLKRLGMDGYRGISLANWMCLAKWESGYNTRATNYNAGDRSTDYGIFQINSRYWCNDGKAPGAVNACHLSCSALLQDNIADAVACAKRVVRDPQGIRAWVAWRNRCQNRDVRQYVQGCGV [T88A] here?
Answer: 60 °C

Question: What about the “unfolding enthalpy (calorimetric)” value of the same variant?
Answer: 101 kcal/mol

Question: What about the “unfolding enthalpy (van 't Hoff)” value of the same variant?
Answer: 104 kcal/mol

Same assay, conditions: Homo sapiens; pH 2.85; Thermal; DSC; glycine-HCl 0.05 M; reversible: yes; structure 1LZ1; whole UniProt chain shown

Question: Which Tm does the source give for MKALIVLGLVLLSVTVQGKVFERCELARTLKRLGMDGYRGISLANWMCLAKWESGYNTRATNYNAGDRSTDYGIFQINSRYWCNDGKAPGAVNACHLSCSALLQDNIADAVACAKRVVRDPQGIRAWVAWRNRCQNRDVRQYVQGCGV [T88A] here?
Answer: 62.2 °C

Question: What about the “unfolding enthalpy (calorimetric)” value of the same variant?
Answer: 103 kcal/mol

Question: What about the “unfolding enthalpy (van 't Hoff)” value of the same variant?
Answer: 106 kcal/mol

Same assay, conditions: Homo sapiens; pH 3; Thermal; DSC; glycine-HCl 0.05 M; reversible: yes; structure 1LZ1; whole UniProt chain shown

Question: Which Tm does the source give for MKALIVLGLVLLSVTVQGKVFERCELARTLKRLGMDGYRGISLANWMCLAKWESGYNTRATNYNAGDRSTDYGIFQINSRYWCNDGKAPGAVNACHLSCSALLQDNIADAVACAKRVVRDPQGIRAWVAWRNRCQNRDVRQYVQGCGV [T88A] here?
Answer: 64.7 °C

Question: And the “unfolding enthalpy (calorimetric)” value?
Answer: 107 kcal/mol

Question: And the “unfolding enthalpy (van 't Hoff)” value?
Answer: 110 kcal/mol

Same assay, conditions: Homo sapiens; pH 3.1; Thermal; DSC; glycine-HCl 0.05 M; reversible: yes; structure 1LZ1; whole UniProt chain shown

Question: Which results are given for MKALIVLGLVLLSVTVQGKVFERCELARTLKRLGMDGYRGISLANWMCLAKWESGYNTRATNYNAGDRSTDYGIFQINSRYWCNDGKAPGAVNACHLSCSALLQDNIADAVACAKRVVRDPQGIRAWVAWRNRCQNRDVRQYVQGCGV [T88A]?
Answer: Tm: 67.1 °C; unfolding enthalpy (calorimetric): 110 kcal/mol; unfolding enthalpy (van 't Hoff): 113 kcal/mol
